Test [1] addresses VEGF165 (UniProt P15692). The test is described as follows: competitive VEGF ELISA; panel B. (ELISA stands for enzyme-linked immunosorbent assay.)
Test [2] addresses VEGF165 (UniProt P15692). The test is described as follows: competitive VEGF ELISA; panel A.
Test [3] has as its target VEGF165 (UniProt P15692). The test is described as follows: VEGF binding assay; after 56 days incubation at 45 C.
In test [4] the target is VEGF165 (UniProt P15692). The test is described as follows: VEGF binding assay.
For test [5], the target named is T1, VEGF165 (UniProt P15692 27-191).
T1 chain: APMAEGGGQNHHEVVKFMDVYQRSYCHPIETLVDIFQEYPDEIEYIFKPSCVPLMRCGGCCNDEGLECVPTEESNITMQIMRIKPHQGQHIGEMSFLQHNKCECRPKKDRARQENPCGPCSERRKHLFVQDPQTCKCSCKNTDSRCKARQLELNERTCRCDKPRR
Kind of test: Biacore; 100RU VEGF. On the technique in general: Surface plasmon resonance follows binding to a sensor surface in real time, without labels.

The target of test [6] is T1, VEGF165. Kind of test: competitive VEGF ELISA; panel A.
For test [7], the target named is T1, VEGF165. The test is described as follows: Biacore; 500RU VEGF.
Test [8] has as its target T1, VEGF165. The test is described as follows: Biacore; 4000RU VEGF.
The target in test [9] is T1, VEGF165. The test is described as follows: competitive VEGF ELISA; panel B.
Test [10] concerns the target T2, VEGF165 (UniProt P15692-4 27-191).
T2 construct: also called recombinant VEGF (R&D Systems); immobilized VEGF
The test is described as follows: competitive VEGF ELISA. The method, then: Dimer was prepared using 100 uM CuCl₂ and the products assayed for VEGF binding activity by competitive VEGF ELISA. […] This value was similar to that obtained for dimers obtained without copper oxidation (FIG. 5). This molecule lacks the hinge region and Fc domain of sFLT01 and represents a minimal high affinity VEGF binding entity. Its low MW may provide advantages in localized delivery, including higher diffusion through tissue, more rapid systemic clearance thus reducing potential side effects of VEGF antagonism, and greater stability upon formulation into slow-release depots.
Dimers wherein two D2 domains of sFLT are coupled via PEG linkers were prepared by reaction of the partially-reduced monomer with homobifunctional PEGs. Products were isolated by SEC (FIG. 5) and analyzed for VEGF binding affinity using competitive ELISA (FIG. 9). VEGF165 binding of three SEC purified D2 domain constructs including dimers prepared with 0.6, 2 and 5 kDa linkers and as well as the 10 and 20 kDa 4-arm PEG conjugates as described in Example 1 was determined. The assay was performed by binding to 10 pM recombinant VEGF (R&D Systems) in phosphate-buffered saline. The sample concentrations ranged from 0.0763 to 156 pM. Following binding, the free VEGF concentration was determined by a VEGF-specific ELISA (R&D Systems). […]

The target of test [11] is T1, VEGF165. Kind of test: competitive VEGF ELISA.
Test [12] addresses T2, VEGF165. The test is described as follows: competitive VEGF ELISA (VEGF binding assay). The method, then:
(§1) Dimers wherein two D2 domains of sFLT are coupled via PEG linkers were prepared by reaction of the partially-reduced monomer with homobifunctional PEGs. Products were isolated by SEC (FIG. 5) and analyzed for VEGF binding affinity using competitive ELISA (FIG. 9). VEGF165 binding of three SEC purified D2 domain constructs including dimers prepared with 0.6, 2 and 5 kDa linkers and as well as the 10 and 20 kDa 4-arm PEG conjugates as described in Example 1 was determined. The assay was performed by binding to 10 pM recombinant VEGF (R&D Systems) in phosphate-buffered saline. The sample concentrations ranged from 0.0763 to 156 pM. Following binding, the free VEGF concentration was determined by a VEGF-specific ELISA (R&D Systems). […] D2 monomer purified directly from medium (“D2 HPC4 eluate Pk C”) had no detectable binding to VEGF165.

Test [13] deals with T2, VEGF165. The test is described as follows: Biacore.
Test [14] addresses T2, VEGF165. Kind of test: competitive VEGF ELISA: binding to 10 pM recombinant VEGF, free VEGF measured by ELISA. The method, then:
as §1

For test [15], the target named is T1, VEGF165. The test is described as follows: VEGF binding assay.

Several values for one entry are separate records, joined by “and”; a condition that tells them apart may be missing. Identical values can stand only once.

With “D2-Cys protein (D2 domain of FLT-1 with HPC4 tag and C-terminal cysteine), monomer (from UniProt P17948 133-226)”, the EC50 in test [1] was 0.172 nM and 0.254 nM.

Regarding “disulfide-linked D2 dimer (D2 domain with HPC4 tag and C-terminal cysteine) (from UniProt P17948 133-226)”, the EC50 in test [2] was determined as 0.00708 nM; in [3], 0.0109 nM; in test [4], 0.0048 nM; in test [1], 0.0119 nM.

B1: Four-arm D2 tetramer linked with 4-arm PEG of 20 kDa (receptor)
chain: RPFVEMYSEIPEIIHMTEGRELVIPCRVTSPNITVTLKKFPLDTLIPDGKRIIWDSRKGFIISNATYKEIGLLTCEATVNGHLYKTNYLTHRQT
modifications: free cysteine coupled to a 4-arm 20 kDa maleimide PEG
On to B1, for which the results for the Kd in [5], in test [7] and in test [8] were 1.5 nM, 0.1 nM and 0.17 nM, respectively. This molecule also yielded an EC50 in [6] of 0.00478 nM.

B2: PEG-linked D2 dimer, 0.6 kDa linker (receptor)
chain: B1 chain
modifications: free cysteine of partially-reduced monomer coupled to a homobifunctional PEG linker of 0.6 kDa (BM(PEG)3)
On to B2, for which, in test [9], the midpoint of the response, the EC50, lay at 0.00471 nM.

B3: PEG-linked D2 dimer, 5 kDa linker (receptor)
chain: B1 chain
modifications: free cysteine of partially-reduced monomer coupled to a homobifunctional PEG linker of 5 kDa
In the case of B3, the concentration for a half-maximal effect (EC50) in test [9] amounted to 0.00675 nM.

B4: disulfide-linked D2 dimer (D2 domain with HPC4 tag and C-terminal cysteine) (receptor)
chain: B1 chain
modifications: disulfide-linked dimer, presumably via the C-terminal cysteine
notes: Two preparations are kept under one id; One formed spontaneously and was SEC-purified from PEGylation reactions or conditioned medium, without copper oxidation ('D2 HPC4 eluate Pk B', 'D2 Pk B'); also called Cu-oxidized dimer; D2 HPC4 eluate Pk B
In the case of B4, the “fold higher EC50 than sFLT01” value in test [10] stood at 2.2 fold; in test [12], 2 fold. For the same molecule, the figures for the EC50 in test [11] and in test [12] were 8.3 nM and 0.008 to 0.01 nM, respectively. For the same molecule, the Kd in test [5] was 1.69 nM; in test [7], 0.53 nM; in test [8], 11.4 nM.

B5: Four-arm D2 tetramer linked with 4-arm PEG of 10 kDa (receptor)
chain: B1 chain
modifications: free cysteine coupled to a 4-arm 10 kDa PEG
In the case of B5, the Kd amounted to 0.84 nM in test [5], 0.14 nM in test [7] and 0.35 nM in [8]. The same molecule registered an EC50 in test [6] of 0.00374 nM.

B6: PEG-linked D2 dimer, 2 kDa linker (receptor)
chain: B1 chain
modifications: free cysteine of partially-reduced monomer coupled to a homobifunctional PEG linker of 2 kDa
B6 yielded an EC50 in [6] of 0.00579 nM.

B7: D2-Cys protein (D2 domain of FLT-1 with HPC4 tag and C-terminal cysteine), monomer (receptor)
chain: B1 chain
notes: Expressed in HEK293-EBNA cells and purified on an HPC4 antibody column; glycosylated; also called D2 monomer; TCEP-reduced D2 monomer
Consider B7, for which the “fold higher EC50 than sFLT01” value in [10] is roughly 35 fold. Besides, the EC50 in [11] was 131 nM. For the same molecule, the Kd in [13] was roughly 10 nM; in [5] it was 9.61 nM; in test [7] it was 11.5 nM; in test [8] it was 28.9 nM. Moreover, the “percent of the binding affinity of sFLT01” value in test [14] is less than 3%.

B8: sFLT01 (D2-9Gly-Fc) (Fc fusion)
chain: RPFVEMYSEIPEIIHMTEGRELVIPCRVTSPNITVTLKKFPLDTLIPDGKRIIWDSRKGFIISNATYKEIGLLTCEATVNGHLYKTNYLTHRQTGGGGGGGGG
Regarding B8, the EC50 in test [11] was determined as 3.7 nM; in test [15], 0.0054 nM; in [6] it was 0.0047 nM; in test [9], 0.00472 nM. Besides, the Kd in test [5] is 2.5 nM; in test [7], 0.61 nM; in test [8] it was 0.8 nM.

One may read the EC50 as the concentration giving half of the maximal effect. What is called Kd is the concentration at which binding is half-saturated. Low values mean higher affinity, high ones lower affinity.
